No end group written: not given here.
Experiments:
[1] = target: the molecule itself; test: AUC, self-association, monomer/dimer/tetramer model, dimer term, 25 C; dimer term of the monomer/dimer/tetramer model, 25 C
[2] = target: the molecule itself; test: sedimentation equilibrium AUC, self-association, monomer-n-mer fit, 25 C
[3] = target: the molecule itself; test: sedimentation equilibrium AUC, self-association (dimer), 25 C
[4] = target: the molecule itself; test: sedimentation equilibrium AUC, self-association (tetramer), 25 C
[5] = target: T1, human Lyn (residues 62-122) SH3 domain-GST fusion protein (human, UniProt P07948 62-122); test: fluorescence polarization, 50 nM labeled peptide, SH3-GST titrated
T1 construct: range 62-122; also called Lyn SH3

[6] = target: T2, human Lck (residues 62-128) SH3 domain-GST fusion (human, UniProt P06239 62-128); test: as above
T2 construct: range 62-128; also called Lck SH3

[7] = target: T3, human Fyn (residues 81-142) SH3 domain-GST fusion protein (human, UniProt P06241 81-142); test: as above
T3 construct: range 81-142; also called Fyn SH3

[8] = target: T4, human Hck (residues 77-137 of full-length kinase) SH3 domain-GST fusion protein (human, UniProt P08631 77-137); test: as above
T4 construct: range 77-137; also called Hck SH3

[9] = target: T1, human Lyn (residues 62-122) SH3 …; test: fluorescence polarization, 50 nM labeled peptide, SH3-GST titrated; data above 50 micromolar target excluded from the fit
[10] = target: T4, human Hck (residues 77-137 of …); test: as above

T1 sequence (P07948 62-122): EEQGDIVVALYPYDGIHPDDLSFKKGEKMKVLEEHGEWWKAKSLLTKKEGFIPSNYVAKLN
T3 sequence (P06241 81-142): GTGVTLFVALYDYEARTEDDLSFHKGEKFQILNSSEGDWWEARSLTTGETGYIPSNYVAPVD
T2 sequence (P06239 62-128): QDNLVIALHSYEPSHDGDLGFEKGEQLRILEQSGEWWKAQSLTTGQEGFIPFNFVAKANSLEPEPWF
T4 sequence (P08631 77-137): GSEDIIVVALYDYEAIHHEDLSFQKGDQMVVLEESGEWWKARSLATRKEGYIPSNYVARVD

B1: aPP^Y7AP13SV14P (peptide)
chain: GPSQPTAPGDDASPEDLIRFYDNLQQYLNVVTRHRY-NH2
notes: Synthetic aPP variant with the proline switch; entries are for its self-association (monomer/dimer/tetramer)
B1 showed a Kd [1] of 530000 nM.

B2: aPP^Y21A (peptide)
chain: GPSQPTYPGDDAPVEDLIRFADNLQQYLNVVTRHRY-NH2
notes: Synthetic aPP variant; entries are for its self-association (dimer)
In the case of B2, the “lnKA (n = 2)” value [2] is reported as 13.6 and the Kd [3] is reported as 1300 nM.

B3: pancreatic peptide YY (PYY) (peptide)
chain: not shown
modifications: C-terminal carboxamide
notes: Synthetic; entries are for its self-association
For B3, the “lnKA (n = 2)” value [2] was 7.09 and the Kd [3] was 830000 nM.

B4: aPP^Y7A (peptide)
chain: GPSQPTAPGDDAPVEDLIRFYDNLQQYLNVVTRHRY-NH2
notes: Synthetic aPP variant; entries are for its self-association (tetramer)
B4 was tested, and the “lnKA (n = 4)” value [2] was 26.3 and the Kd [4] was 0.0039 nM.

B5: aPP^Y7AP13VV14P (peptide)
chain: GPSQPTAPGDDAVPEDLIRFYDNLQQYLNVVTRHRY-NH2
notes: Synthetic aPP variant; entries are for its self-association (tetramer); also called aPP^Y7AP13W14P
In the case of B5, the “lnKA (n = 4)” value [2] is reported as 27.9 and the Kd [4] is reported as 0.00075 nM.

B6: aPP^Y7AT6E (peptide)
chain: GPSQPEAPGDDAPVEDLIRFYDNLQQYLNVVTRHRY-NH2
notes: entries are for its self-association (tetramer); also called aPP^Y7AAT6E
With B6 the “lnKA (n = 4)” value [2] was 29.3 and the Kd [4] was 0.0002 nM.

B7: aPP^Y7AQ25R (peptide)
chain: GPSQPTAPGDDAPVEDLIRFYDNLRQYLNVVTRHRY-NH2
notes: as for B4
For B7, the “lnKA (n = 4)” value [2] was 29.3 and the Kd [4] was 0.00018 nM.

B8: PP2^Flu (designed binder)
chain: APPLPPRNRGDDAPVEDLIRFYDNLQQYLNVVTRHRYC
modifications: ends and bridges not checked; also: fluorescently labeled, site and dye not given here
notes: also called PP2 (fluorescently labeled)
For B8, the Kd [5] was 3700 nM, the Kd [6] was 2700 nM and the Kd [7] was 14000 nM. The Kd [8] was 1300 nM.

B9: PP3^Flu (designed binder)
chain: APPLPPRNRPRDAPVEDLIRFYDNLQQYLNVVTRHRYC
modifications: ends and bridges not checked; also: fluorescently labeled, site and dye not given here
notes: also called PP3 (fluorescently labeled)
B9 gave a Kd [6] of 1430 nM, a Kd [7] of 2100 nM and a Kd [9] of 1800 nM. It also gave a Kd [10] of 880 nM.

B10: PP1^Flu (designed binder)
chain: APPLPPRNPGDDAPVEDLIRFYDNLQQYLNVVTRHRYC
modifications: ends and bridges not checked; also: fluorescently labeled, site and dye not given here
notes: also called PP1 (fluorescently labeled)
B10 gave a Kd [5] of 4900 nM, a Kd [6] of 40000 nM and a Kd [7] of 25000 nM. It also gave a Kd [8] of 3800 nM.

B11: aPP^F20A (peptide)
chain: GPSQPTYPGDDAPVEDLIRAYDNLQQYLNVVTRHRY-NH2
notes: as for B4
For B11, the “lnKA (n = 4)” value [2] was 23.3 and the Kd [4] was 0.076 nM.

B12: avian pancreatic polypeptide (aPP) (peptide)
chain: GPSQPTYPGDDAPVEDLIRFYDNLQQYLNVVTRHRY
modifications: ends and bridges not checked
notes: Bought from American Peptide Company; entries are for its self-association (dimer); also called wt aPP
For B12, the “lnKA (n = 2)” value [2] was 12.4 and the Kd [3] was 4100 nM.
